Here are results for one molecule from publication PMC5839545 (2018).

The assay deals with CENP-T (Homo sapiens, UniProt Q96BT3). In words: SW-FCCS.
Sequence of CENP-T (Q96BT3 whole entry): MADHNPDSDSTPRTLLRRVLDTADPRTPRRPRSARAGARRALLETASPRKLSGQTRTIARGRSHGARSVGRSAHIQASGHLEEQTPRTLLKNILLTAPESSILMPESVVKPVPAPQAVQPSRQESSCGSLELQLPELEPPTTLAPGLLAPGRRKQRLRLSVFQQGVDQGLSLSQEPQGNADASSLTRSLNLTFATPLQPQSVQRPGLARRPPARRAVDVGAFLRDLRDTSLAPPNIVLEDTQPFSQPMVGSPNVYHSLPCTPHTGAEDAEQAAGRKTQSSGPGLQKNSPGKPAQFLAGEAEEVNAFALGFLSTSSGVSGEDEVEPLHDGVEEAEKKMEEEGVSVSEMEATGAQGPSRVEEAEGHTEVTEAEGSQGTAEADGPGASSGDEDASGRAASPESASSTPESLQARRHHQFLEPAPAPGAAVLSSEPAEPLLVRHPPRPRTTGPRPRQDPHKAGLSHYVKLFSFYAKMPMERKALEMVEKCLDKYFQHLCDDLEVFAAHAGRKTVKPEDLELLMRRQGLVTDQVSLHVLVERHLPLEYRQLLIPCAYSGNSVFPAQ

B1: Spc24 (protein)
chain: MAAFRDIEEVSQGLLSLLGANRAEAQQRRLLGRHEQVVERLLETQDGAEKQLREILTMEKEVAQSLLNAKEQVHQGGVELQQLEAGLQEAGEEDTRLKASLLQLTRELEELKEIEADLERQEKEVDEDTTVTIPSAVYVAQLYHQVSKIEWDYECEPGMVKGIHHGPSVAQPIHLDSTQLSRKFISDYLWSLVDTEW
Consider B1, for which the Kd (usually the concentration at which binding is half-saturated) stood at 1.8 µM.
